# Reference: IntAct's records for PubMed 31515488
# B1: Zinc finger protein 511 (Homo sapiens), Q8NB15 (parent)
# chain: MQLPPALCARLAAGPGAAEPLPVERDPAAGAAPFRFVARPVRFPREHQFFEDGDVQRHLYLQDVIMQVADVPEKPRVPAFACQVAGCCQVFDALDDYEHHYHTLHGNVCSFCKRAFPSGHLLDAHILEWHDSLFQILSERQDMYQCLVEGCTEKFKTSRDRKDHMVRMHLYPADFRFDKPKKSRSPASAEAPGDSGERSEGEAMEICSEPVAASPAPAGERRIYRHRIPSTICFGQGAARGFKSNKKKTKQC
# partner: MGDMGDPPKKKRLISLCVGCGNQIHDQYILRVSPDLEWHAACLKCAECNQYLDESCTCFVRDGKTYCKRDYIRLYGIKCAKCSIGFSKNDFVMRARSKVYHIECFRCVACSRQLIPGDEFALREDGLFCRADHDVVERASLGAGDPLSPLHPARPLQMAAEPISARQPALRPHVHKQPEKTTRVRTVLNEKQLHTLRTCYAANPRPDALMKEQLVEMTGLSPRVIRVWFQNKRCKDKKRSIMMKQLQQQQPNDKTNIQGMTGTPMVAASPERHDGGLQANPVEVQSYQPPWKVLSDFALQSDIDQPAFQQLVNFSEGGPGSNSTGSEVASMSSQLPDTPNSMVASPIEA
# B2: Carboxy-terminal domain RNA polymerase II polypeptide A small phosphatase 1 (Homo sapiens), Q9GZU7 (parent)
# chain: MDSSAVITQISKEEARGPLRGKGDQKSAASQKPRSRGILHSLFCCVCRDDGEALPAHSGAPLLVEENGAIPKQTPVQYLLPEAKAQDSDKICVVIDLDETLVHSSFKPVNNADFIIPVEIDGVVHQVYVLKRPHVDEFLQRMGELFECVLFTASLAKYADPVADLLDKWGAFRARLFRESCVFHRGNYVKDLSRLGRDLRRVLILDNSPASYVFHPDNAVPVASWFDNMSDTELHDLLPFFEQLSRVDDVYSVLRQPRPGS
# B3: TBC1 domain family member 22B (Homo sapiens), Q9NU19 (parent)
# chain: MAAENSKQFWKRSAKLPGSIQPVYGAQHPPLDPRLTKNFIKERSKVNTVPLKNKKASSFHEFARNTSDAWDIGDDEEEDFSSPSFQTLNSKVALATAAQVLENHSKLRVKPERSQSTTSDVPANYKVIKSSSDAQLSRNSSDTCLRNPLHKQQSLPLRPIIPLVARISDQNASGAPPMTVREKTRLEKFRQLLSSQNTDLDELRKCSWPGVPREVRPITWRLLSGYLPANTERRKLTLQRKREEYFGFIEQYYDSRNEEHHQDTYRQIHIDIPRTNPLIPLFQQPLVQEIFERILFIWAIRHPASGYVQGINDLVTPFFVVFLSEYVEEDVENFDVTNLSQDMLRSIEADSFWCMSKLLDGIQDNYTFAQPGIQKKVKALEELVSRIDEQVHNHFRRYEVEYLQFAFRWMNNLLMRELPLRCTIRLWDTYQSEPEGFSHFHLYVCAAFLIKWRKEILDEEDFQGLLMLLQNLPTIHWGNEEIGLLLAEAYRLKYMFADAPNHYRR
# B4: Tuftelin-interacting protein 11 (Homo sapiens), Q9UBB9 (parent)
# chain: MSLSHLYRDGEGRIDDDDDERENFEITDWDLQNEFNPNRQRHWQTKEEATYGVWAERDSDDERPSFGGKRARDYSAPVNFISAGLKKGAAEEAELEDSDDEEKPVKQDDFPKDFGPRKLKTGGNFKPSQKGFAGGTKSFMDFGSWERHTKGIGQKLLQKMGYVPGRGLGKNAQGIINPIEAKQRKGKGAVGAYGSERTTQSMQDFPVVDSEEEAEEEFQKELSQWRKDPSGSKKKPKYSYKTVEELKAKGRISKKLTAPQKELSQVKVIDMTGREQKVYYSYSQISHKHNVPDDGLPLQSQQLPQSGKEAKAPGFALPELEHNLQLLIDLTEQEIIQNDRQLQYERDMVVNLFHELEKMTEVLDHEERVISNLSKVLEMVEECERRMQPDCSNPLTLDECARIFETLQDKYYEEYRMSDRVDLAVAIVYPLMKEYFKEWDPLKDCTYGTEIISKWKSLLENDQLLSHGGQDLSADAFHRLIWEVWMPFVRNIVTQWQPRNCDPMVDFLDSWVHIIPVWILDNILDQLIFPKLQKEVENWNPLTDTVPIHSWIHPWLPLMQARLEPLYSPIRSKLSSALQKWHPSDSSAKLILQPWKDVFTPGSWEAFMVKNIVPKLGMCLGELVINPHQQHMDAFYWVIDWEGMISVSSLVGLLEKHFFPKWLQVLCSWLSNSPNYEEITKWYLGWKSMFSDQVLAHPSVKDKFNEALDIMNRAVSSNVGAYMQPGARENIAYLTHTERRKDFQYEAMQERREAENMAQRGIGVAASSVPMNFKDLIETKAEEHNIVFMPVIGKRHEGKQLYTFGRIVIYIDRGVVFVQGEKTWVPTSLQSLIDMAK
# partner: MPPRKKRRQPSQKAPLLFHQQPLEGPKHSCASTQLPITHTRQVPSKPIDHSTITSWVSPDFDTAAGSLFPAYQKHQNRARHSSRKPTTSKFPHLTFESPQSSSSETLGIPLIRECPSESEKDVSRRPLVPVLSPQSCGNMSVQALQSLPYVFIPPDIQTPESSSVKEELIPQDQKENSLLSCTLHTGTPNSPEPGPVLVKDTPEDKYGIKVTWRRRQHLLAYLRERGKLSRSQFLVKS
# B5: Proto-oncogene serine/threonine-protein kinase mos (Homo sapiens), P00540 (parent)
# chain: MPSPLALRPYLRSEFSPSVDARPCSSPSELPAKLLLGATLPRAPRLPRRLAWCSIDWEQVCLLQRLGAGGFGSVYKATYRGVPVAIKQVNKCTKNRLASRRSFWAELNVARLRHDNIVRVVAASTRTPAGSNSLGTIIMEFGGNVTLHQVIYGAAGHPEGDAGEPHCRTGGQLSLGKCLKYSLDVVNGLLFLHSQSIVHLDLKPANILISEQDVCKISDFGCSEKLEDLLCFQTPSYPLGGTYTHRAPELLKGEGVTPKADIYSFAITLWQMTTKQAPYSGERQHILYAVVAYDLRPSLSAAVFEDSLPGQRLGDVIQRCWRPSAAQRPSARLLLVDLTSLKAELG
# partner: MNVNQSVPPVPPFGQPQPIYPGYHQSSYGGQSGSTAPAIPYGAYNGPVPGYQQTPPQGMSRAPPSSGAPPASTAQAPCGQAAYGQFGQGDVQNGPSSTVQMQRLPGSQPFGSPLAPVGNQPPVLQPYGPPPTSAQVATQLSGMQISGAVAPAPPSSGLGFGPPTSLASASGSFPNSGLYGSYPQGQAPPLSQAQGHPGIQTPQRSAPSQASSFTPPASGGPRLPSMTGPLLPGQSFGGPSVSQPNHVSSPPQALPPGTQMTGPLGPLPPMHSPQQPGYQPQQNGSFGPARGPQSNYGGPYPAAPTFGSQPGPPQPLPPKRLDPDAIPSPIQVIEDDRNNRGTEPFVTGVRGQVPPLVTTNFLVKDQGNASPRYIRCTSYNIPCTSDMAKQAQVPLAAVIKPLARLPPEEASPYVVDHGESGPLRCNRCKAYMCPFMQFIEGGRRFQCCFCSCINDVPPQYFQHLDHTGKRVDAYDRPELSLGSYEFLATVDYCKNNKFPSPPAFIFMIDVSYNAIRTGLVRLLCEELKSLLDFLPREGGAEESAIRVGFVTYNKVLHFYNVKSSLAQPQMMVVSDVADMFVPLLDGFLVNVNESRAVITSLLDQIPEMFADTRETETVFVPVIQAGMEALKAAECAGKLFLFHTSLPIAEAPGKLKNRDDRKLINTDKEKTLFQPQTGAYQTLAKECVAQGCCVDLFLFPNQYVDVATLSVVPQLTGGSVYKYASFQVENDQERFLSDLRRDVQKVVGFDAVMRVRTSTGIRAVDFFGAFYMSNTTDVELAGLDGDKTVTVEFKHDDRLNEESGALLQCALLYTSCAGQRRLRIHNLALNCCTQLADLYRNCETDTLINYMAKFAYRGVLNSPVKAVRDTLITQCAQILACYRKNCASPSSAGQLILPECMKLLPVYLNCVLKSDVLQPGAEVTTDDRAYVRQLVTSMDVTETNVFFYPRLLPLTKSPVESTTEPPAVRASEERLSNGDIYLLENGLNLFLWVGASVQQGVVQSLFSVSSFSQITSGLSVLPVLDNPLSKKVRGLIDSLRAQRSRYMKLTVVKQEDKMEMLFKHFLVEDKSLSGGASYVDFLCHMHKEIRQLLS
# B6: RUN and FYVE domain-containing protein 1 (Homo sapiens), Q96T51-2 (parent)
# chain: MMEERANLMHMMKLSIKVLLQSALSLGRSLDADHAPLQQFFVVMEHCLKHGLKVKKSFIGQNKSFFGPLELVEKLCPEASDIATSVRNLPELKTAVGRGRAWLYLALMQKKLADYLKVLIDNKHLLSEFYEPEALMMEEEGMVIVGLLVGLNVLDANLCLKGEDLDSQVGVIDFSLYLKDVQDLDGGKEHERITDVLDQKNYVEELNRHLSCTVGDLQTKIDGLEKTNSKLQEELSAATDRICSLQEEQQQLREQNELIRERSEKSVEITKQDTKVELETYKQTRQGLDEMYSDVWKQLKEEKKVRLELEKELELQIGMKTEMEIAMKLLEKDTHEKQDTLVALRQQLEEVKAINLQMFHKAQNAESSLQQKNEAITSFEGKTNQVMSSMKQMEERLQHSERARQGAEERSHKLQQELGGRIGALQLQLSQLHEQCSSLEKELKSEKEQRQALQRELQHEKDTSSLLRMELQQVEGLKKELRELQDEKAELQKICEEQEQALQEMGLHLSQSKLKMEDIKEVNQALKGHAWLKDDEATHCRQCEKEFSISRRKHHCRNCGHIFCNTCSSNELALPSYPKPVRVCDSCHTLLLQRCSSTAS
# partner: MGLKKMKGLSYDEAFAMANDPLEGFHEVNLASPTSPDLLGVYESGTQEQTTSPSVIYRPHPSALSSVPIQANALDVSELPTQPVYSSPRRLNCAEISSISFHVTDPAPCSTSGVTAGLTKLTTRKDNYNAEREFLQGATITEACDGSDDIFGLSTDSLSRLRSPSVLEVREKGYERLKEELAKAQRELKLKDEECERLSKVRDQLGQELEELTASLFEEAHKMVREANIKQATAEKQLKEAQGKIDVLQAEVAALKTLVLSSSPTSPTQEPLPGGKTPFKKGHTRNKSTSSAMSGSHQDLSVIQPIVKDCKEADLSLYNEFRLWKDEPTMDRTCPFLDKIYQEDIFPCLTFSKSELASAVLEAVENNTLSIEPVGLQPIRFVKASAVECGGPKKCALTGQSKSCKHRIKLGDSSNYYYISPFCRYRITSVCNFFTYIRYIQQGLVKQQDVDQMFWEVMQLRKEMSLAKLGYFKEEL
# B7: Protein FAM9B (Homo sapiens), Q8IZU0 (parent)
# chain: MAAWGKKHAGKDPVRDECEERNRFTETREEDVTDEHGEREPFAETDEHTGANTKKPEDTAEDLTAKRKRMKMDKTCSKTKNKSKHALRKKQLKRQKRDYIHSLKLLNVLEEYITDEQKEEEEEEGEEEELIRIFQEQQKKWQQYRSVRRERLKEMKLLRDQFVKALEDFEDLCDRVFSDEDSELDN
# partner: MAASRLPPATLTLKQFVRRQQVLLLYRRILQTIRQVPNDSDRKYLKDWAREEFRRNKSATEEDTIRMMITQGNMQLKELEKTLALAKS
# B8: Adenosylhomocysteinase (Homo sapiens), P23526 (parent)
# chain: MSDKLPYKVADIGLAAWGRKALDIAENEMPGLMRMRERYSASKPLKGARIAGCLHMTVETAVLIETLVTLGAEVQWSSCNIFSTQDHAAAAIAKAGIPVYAWKGETDEEYLWCIEQTLYFKDGPLNMILDDGGDLTNLIHTKYPQLLPGIRGISEETTTGVHNLYKMMANGILKVPAINVNDSVTKSKFDNLYGCRESLIDGIKRATDVMIAGKVAVVAGYGDVGKGCAQALRGFGARVIITEIDPINALQAAMEGYEVTTMDEACQEGNIFVTTTGCIDIILGRHFEQMKDDAIVCNIGHFDVEIDVKWLNENAVEKVNIKPQVDRYRLKNGRRIILLAEGRLVNLGCAMGHPSFVMSNSFTNQVMAQIELWTHPDKYPVGVHFLPKKLDEAVAEAHLGKLNVKLTKLTEKQAQYLGMSCDGPFKPDHYRY
# Variants of: B1
# Conditions: with isl1_human ISL1, P61371
row,effect of a mutation on the interaction,Variant
1,with no effect,D123N

# Variants of: B2
# Conditions: with mbp_human MBP
row,effect of a mutation on the interaction,Variant
1,with no effect,A56T

# Variants of: B3
# Conditions: with tri23_human TRIM23, P36406
# Chain of tri23_human TRIM23, P36406 (P36406 whole entry): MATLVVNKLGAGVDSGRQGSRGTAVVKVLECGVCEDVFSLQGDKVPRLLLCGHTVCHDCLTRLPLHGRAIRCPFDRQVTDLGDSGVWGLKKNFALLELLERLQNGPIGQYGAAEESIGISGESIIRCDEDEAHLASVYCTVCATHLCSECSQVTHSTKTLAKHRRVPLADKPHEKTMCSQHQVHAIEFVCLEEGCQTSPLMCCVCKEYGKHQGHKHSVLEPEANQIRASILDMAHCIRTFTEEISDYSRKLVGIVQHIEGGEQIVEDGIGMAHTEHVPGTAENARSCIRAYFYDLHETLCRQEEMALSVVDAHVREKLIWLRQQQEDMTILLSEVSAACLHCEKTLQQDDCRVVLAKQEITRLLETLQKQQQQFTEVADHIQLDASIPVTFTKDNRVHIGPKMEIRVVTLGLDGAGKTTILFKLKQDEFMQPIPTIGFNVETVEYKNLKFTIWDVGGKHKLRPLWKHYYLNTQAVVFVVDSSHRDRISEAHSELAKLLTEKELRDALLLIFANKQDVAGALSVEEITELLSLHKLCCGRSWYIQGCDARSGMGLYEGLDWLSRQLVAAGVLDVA
row,effect of a mutation on the interaction,Variant
1,with no effect,P177A

# Variants of: B3
# Conditions: with ikzf3_human IKZF3, Q9UKT9
# Chain of ikzf3_human IKZF3, Q9UKT9 (Q9UKT9 whole entry): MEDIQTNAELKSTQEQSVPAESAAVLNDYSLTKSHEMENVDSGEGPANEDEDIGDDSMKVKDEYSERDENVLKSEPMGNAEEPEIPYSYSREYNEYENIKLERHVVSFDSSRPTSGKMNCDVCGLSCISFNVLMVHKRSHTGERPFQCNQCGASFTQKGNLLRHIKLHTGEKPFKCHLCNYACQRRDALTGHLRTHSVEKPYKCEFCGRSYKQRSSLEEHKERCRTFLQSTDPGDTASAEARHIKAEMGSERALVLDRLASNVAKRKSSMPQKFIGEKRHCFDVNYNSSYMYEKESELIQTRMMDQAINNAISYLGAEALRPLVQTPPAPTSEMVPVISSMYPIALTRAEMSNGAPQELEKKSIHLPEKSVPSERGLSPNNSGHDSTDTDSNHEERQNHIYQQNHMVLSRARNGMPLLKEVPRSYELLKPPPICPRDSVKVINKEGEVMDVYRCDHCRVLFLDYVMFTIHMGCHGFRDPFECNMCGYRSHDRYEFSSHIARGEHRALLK
row,effect of a mutation on the interaction,Variant
1,with no effect,P177A

# Variants of: B4
# Conditions: with rhno1_human RHNO1, Q9BSD3
row,effect of a mutation on the interaction,Variant
1,with no effect,R8Q
2,with no effect,S688L

# Variants of: B5
# Conditions: with sc24c_human SEC24C
row,effect of a mutation on the interaction,Variant
1,disrupting interaction strength,A123T
2,with no effect,A105S

# Variants of: B6
# Conditions: with rab3i_human RAB3IP
row,effect of a mutation on the interaction,Variant
1,with no effect,C159F

# Variants of: B7
# Conditions: with lyrm2_human LYRM2, Q9NU23
row,effect of a mutation on the interaction,Variant
1,with no effect,R23H

# Variants of: B8
# Conditions: with ca050_human C1orf50, Q9BV19
# Chain of ca050_human C1orf50, Q9BV19 (Q9BV19 whole entry): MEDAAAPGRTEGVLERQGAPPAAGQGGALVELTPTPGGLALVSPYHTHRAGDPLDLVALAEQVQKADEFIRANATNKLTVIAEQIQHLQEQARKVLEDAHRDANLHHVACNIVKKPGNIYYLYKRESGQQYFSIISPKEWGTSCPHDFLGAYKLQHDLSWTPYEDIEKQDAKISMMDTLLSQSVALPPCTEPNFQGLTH
row,effect of a mutation on the interaction,Variant
1,with no effect,I92V
